Measured values as given in paper doi:10.1101/2021.04.23.440992.

biological target: FUS-DDIT3 (Type II fusion), recombinant; assay: partitioning of a labelled client into condensates

Substance | partition coefficient
ARID1A^PLD, recombinant prion-like domain of ARID1A (domain or fragment) | 15
ARID1B^PLD, recombinant prion-like domain of ARID1B (domain or fragment) | 3.8
BRG1, recombinant, RED-tris-NTA-labeled (from UniProt P51532 1-1647) (natural protein) | 27
BRG1^PLD, recombinant N-terminal prion-like domain of BRG1 (from UniProt P51532 1-340) (domain or fragment) | 40
SS18^PLD, recombinant prion-like domain of SS18 (domain or fragment) | 6
